Drawing on paper PMC5099905, this text covers fold increase of the clathrin/E-cadherin co-IP ratio, Sh-DDR1 cells against Mock cells for 1 substance.

This experiment addresses E-cadherin (canine (endogenous in MDCK)). Put plainly: co-IP; 1 mg MDCK lysate (RIPA buffer) from Mock or DDR1-knockdown (Sh-DDR1) cells, incubated overnight at 4 °C with 1 μg anti-E-cadherin antibody, protein G-sepharose beads; immunoblot with anti-clathrin heavy chain; control antibody as negative control. (In general: Immunoblotting shows a protein as a band on a membrane.)

Consider clathrin heavy chain (natural protein), for which the fold increase of the clathrin/E-cadherin co-IP ratio, Sh-DDR1 cells against Mock cells was determined as 3.5 fold.
